Results reported in article PMC8395317, “The Simple Method of Preparation of Highly Carboxylated Bacterial Cellulose with Ni- and Mg-Ferrite-Based Versatile Magnetic Carrier for Enzyme Immobilization” (International Journal of Molecular Sciences, 2021).

Substrate: CCCC(=O)Oc1ccc([N+](=O)[O-])cc1
Test: purified protein
Type: biochemical, Moesziomyces antarcticus
Conditions: free enzyme, 0.1 to 1.2 mmol/L pNPB, 50 mmol/L phosphate pH 7.0, 0.004% Triton X-100, 30 °C

B1: lipase B from Candida antarctica (Lipozyme CALB-L) (Moesziomyces antarcticus) (protein)
chain: LPSGSDPAFSQPKSVLDAGLTCQGASPSSVSKPILLVPGTGTTGPQSFDSNWIPLSTQLGYTPCWISPPPFMLNDTQVNTEYMVNAITALYAGSGNNKLPVLTWSQGGLVAQWGLTFFPSIRSKVDRLMAFAPDYKGTVLAGPLDALAVSAPSVWQQTTGSALTTALRNAGGLTQIVPTTNLYSATDEIVQPQVSNSPLDSSYLFNGKNVQAQAVCGPLFVIDHAGSLTSQFSYVVGRSALRSTTGQARSADYGITDCNPLPANDLTPEQKVAAAALLAPAAAAIVAGPKQNCEPDLMPYARPFAVGKRTCSGIVTP
notes: commercial recombinant enzyme (Lipozyme CALB-L, Sigma-Aldrich), used without further purification; free form
Work on B1 yielded a Km of 160 ± 10 µM.
